According to patent US20160137740A1 (AstraZeneca / MedImmune, published 2016):

What was measured:
Human OX40 [1] = molecular target: T1, Human OX40 (human, UniProt P43489 29-277); assay: cell-based or functional assay
T1 sequence: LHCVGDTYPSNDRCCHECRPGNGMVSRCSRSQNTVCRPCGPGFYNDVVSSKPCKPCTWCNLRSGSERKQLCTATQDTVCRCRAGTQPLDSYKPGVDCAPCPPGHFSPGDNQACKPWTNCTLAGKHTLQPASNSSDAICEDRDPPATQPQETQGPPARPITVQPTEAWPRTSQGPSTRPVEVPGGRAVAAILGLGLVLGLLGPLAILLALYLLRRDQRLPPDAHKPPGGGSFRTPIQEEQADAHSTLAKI

Human OX40 [2] = molecular target: T1, Human OX40; assay: cell-based or functional assay; remark: listed apart in the source

B1: 9B12 (antibody, mouse IgG1, V domains shown)
VH: EVQLQESGPSLVKPSQTLSLTCSVTGDSFTSGYWNWIRKFPGNRLEYMGYISYNGITYHNPSLKSRISITRDTSKNHYYLQLNSVTTEDTATYFCARYRYDYDGGHAMDYWGQGTLVTVSS
VL: DIQMTQTTSSLSASLGDRVTISCRASQDISNYLNWYQQKPDGTVKLLIYYTSKLHSGVPSRFSGSGSRTDYSLTITDLDQEDIATYFCQQGSALPWTFGQGTKVEIKR
notes: mouse IgG1 kappa; also called murine mAb 9B12; mouse anti-human OX40 IgG1κ monoclonal antibody
- mean EC50, NFκB-luciferase 2-cell assay, human Raji B cells + human OX40 Jurkat clone 64 (Human OX40 [1]): 4.68 nM
- EC50, IFNγ release, donor 645 (Human OX40 [2]): 2.38 nM
- EC50, IFNγ release, donor 651 (Human OX40 [2]): 0.758 nM
